Blank lines part the entries; values can stand above or below the molecule they belong to.
Legend:
[1] = molecular target: human Brk1, in vitro translated, N-terminally tagged (PC-Brk1; the other copies in the self-association experiments are SBP-, Flag- or HA-Brk1) (human) (UniProt Q8WUW1); experiment: co-IP; PC-Brk1, SBP-Brk1 and HA-Wave2 co-translated in vitro; PC immunoprecipitation, then SBP precipitation or HA immunoprecipitation as a second step
[2] = molecular target: the molecule itself; experiment: cross-linking; pooled SEC fractions of partially purified free untagged Brk1; glutaraldehyde 0.2% final or 2-fold dilutions, 50 mM Tris pH 8.0, 10 min, room temperature; Brk1 western blot
[3] = molecular target: the molecule itself; experiment: co-IP; PC-, SBP-, Flag- and HA-Brk1 co-produced by in vitro translation with 35S-methionine; three sequential native precipitations (PC eluted with EDTA, SBP on streptavidin eluted with biotin, then Flag or HA); autoradiography

stoichiometry N [1]: 1
Molecule: HA-Wave2, in vitro translated (from UniProt Q9Y6W5 1-498) (natural protein)

B1: untagged Brk1 (free Brk1), partially purified from transfected 293T cells (natural protein, human, UniProt Q8WUW1 1-75, looked up)
chain: MAGQEDPVQREIHQDWANREYIEIITSSIKKIADFLNSFDMSCRSRLATLNEKLTALERRIEYIEARVTKGETLT
notes: Brick1 (Brk1, Hspc300), human, untagged cDNA; printed mass 8.7 kDa; that is not this construct; The fraction holds many other proteins but no Wave complex; also called Brick1; Hspc300; source: 293T, transfected with pCS2-Brk1, partially purified (35%-55% ammonium sulfate cut, SEC on superdex-200)
stoichiometry N [2]: 3

B2: human Brk1, in vitro translated, N-terminally tagged (PC-Brk1; the other copies in the self-association experiments are SBP-, Flag- or HA-Brk1) (natural protein, UniProt Q8WUW1 1-75, looked up)
chain: MAGQEDPVQREIHQDWANREYIEIITSSIKKIADFLNSFDMSCRSRLATLNEKLTALERRIEYIEARVTKGETLT
notes: Brick1 (Brk1, Hspc300), human; One molecule stands for the differently tagged copies of human Brk1 that were co-translated; also called SBP-Brk1; Flag-Brk1; source: in vitro translated (TnT, rabbit reticulocyte lysate, 35S-methionine), pCS2 plasmid; not shown: PC, N-terminal, kept
stoichiometry N [3]: 3

Reference: publication PMC2413427, “Free Brick1 Is a Trimeric Precursor in the Assembly of a Functional Wave Complex” (PLoS ONE, 2008)
